The source of these data is the Human Domainome abundance scans (Beltran et al. 2025).

Sequences and labels used below:
B1: RAS guanyl-releasing protein 1, residues 539 to 593; numbered along this chain, O95267 (parent)
chain: GFPHNFQETTYLKPTFCDNCAGFLWGVIKQGYRCKDCGMNCHKQCKDLVVFECKK

± gives the uncertainty stated by the source.

The data set covers variants of B1. Kind of data set: abundance fitness (aPCA) (normalised: wild type 0, dead -1); higher = more abundant; growth selection in yeast, the domain comes from the species named. The following applies: Homo sapiens.
Take GFPHNFQETTYLKPTFCDNCAGFLWGVIKQGYRCKDCGMNCHKQCKDLVVFGCKK: the abundance fitness was -0.031 ± 0.045.

As to GFPHNFQETTYLKPTFCDNCAGFLWGVIKQGYRCKDCGMNCHKQCKDLVVFECAK, the abundance fitness is -0.233 ± 0.1. As for GFPHNFQETTYLKPTFCDNCAGFLWGVIKQGYRCKDCGMNCHKQCKDLVVFECCK, the figure is -0.157 ± 0.046. With GFPHNFQETTYLKPTFCDNCAGFLWGVIKQGYRCKDCGMNCHKQCKDLVVFECRK, the abundance fitness was -0.028 ± 0.076. On to GFPHNFQETTYLKPTFCDNCAGFLWGVIKQGYRCKDCGMNCHKQCKDLVVFECNK, for which the abundance fitness was -0.113 ± 0.089. As for GFPHNFQETTYLKPTFCDNCAGFLWGVIKQGYRCKDCGMNCHKQCKDLVVFECDK, the figure is -0.186 ± 0.15. With GFPHNFQETTYLKPTFCDNCAGFLWGVIKQGYRCKDCGMNCHKQCKDLVVFECGK, the abundance fitness was -0.303 ± 0.1. Turning to GFPHNFQETTYLKPTFCDNCAGFLWGVIKQGYRCKDCGMNCHKQCKDLVVFECEK, the abundance fitness was -0.103 ± 0.1. Consider GFPHNFQETTYLKPTFCDNCAGFLWGVIKQGYRCKDCGMNCHKQCKDLVVFECLK, for which the abundance fitness was -0.269 ± 0.087. For GFPHNFQETTYLKPTFCDNCAGFLWGVIKQGYRCKDCGMNCHKQCKDLVVFECHK the value was -0.567 ± 0.27.

GFPHNFQETTYLKPTFCDNCAGFLWGVIKQGYRCKDCGMNCHKQCKDLVVFECQK: the abundance fitness was -0.113 ± 0.16. Regarding GFPHNFQETTYLKPTFCDNCAGFLWGVIKQGYRCKDCGMNCHKQCKDLVVFECFK, the abundance fitness was -0.228 ± 0.092. For GFPHNFQETTYLKPTFCDNCAGFLWGVIKQGYRCKDCGMNCHKQCKDLVVFECPK the value was -0.586 ± 0.31. Take GFPHNFQETTYLKPTFCDNCAGFLWGVIKQGYRCKDCGMNCHKQCKDLVVFECMK: the abundance fitness came to 0.018 ± 0.098.

With GFPHNFQETTYLKPTFCDNCAGFLWGVIKQGYRCKDCGMNCHKQCKDLVVFECIK, the abundance fitness is -0.266 ± 0.12. As for GFPHNFQETTYLKPTFCDNCAGFLWGVIKQGYRCKDCGMNCHKQCKDLVVWECKK, the figure is -0.09 ± 0.094.

For the variant GFPHNFQETTYLKPTFCDNCAGFLWGVIKQGYRCKDCGMNCHKQCKDLVVYECKK, the abundance fitness came out at 0.05 ± 0.086. For GFPHNFQETTYLKPTFCDNCAGFLWGVIKQGYRCKDCGMNCHKQCKDLVVQECKK the value was 0.002 ± 0.091. As for GFPHNFQETTYLKPTFCDNCAGFLWGVIKQGYRCKDCGMNCHKQCKDLVVCECKK, the figure is -0.061 ± 0.12; as for GFPHNFQETTYLKPTFCDNCAGFLWGVIKQGYRCKDCGMNCHKQCKDLVVVECKK, -0.046 ± 0.077; as for GFPHNFQETTYLKPTFCDNCAGFLWGVIKQGYRCKDCGMNCHKQCKDLVVHECKK, -0.426 ± 0.31. As for GFPHNFQETTYLKPTFCDNCAGFLWGVIKQGYRCKDCGMNCHKQCKDLVVDECKK, the figure is -0.043 ± 0.15; as for GFPHNFQETTYLKPTFCDNCAGFLWGVIKQGYRCKDCGMNCHKQCKDLVVSECKK, 0.011 ± 0.082. In the case of GFPHNFQETTYLKPTFCDNCAGFLWGVIKQGYRCKDCGMNCHKQCKDLVVPECKK, the abundance fitness was -0.07 ± 0.064. As for GFPHNFQETTYLKPTFCDNCAGFLWGVIKQGYRCKDCGMNCHKQCKDLVVGECKK, the figure is 0.033 ± 0.06. As for GFPHNFQETTYLKPTFCDNCAGFLWGVIKQGYRCKDCGMNCHKQCKDLVVTECKK, the figure is -0.435 ± 0.14. Turning to GFPHNFQETTYLKPTFCDNCAGFLWGVIKQGYRCKDCGMNCHKQCKDLVVMECKK, the abundance fitness was -0.029 ± 0.054. As for GFPHNFQETTYLKPTFCDNCAGFLWGVIKQGYRCKDCGMNCHKQCKDLVVAECKK, the figure is -0.074 ± 0.083; as for GFPHNFQETTYLKPTFCDNCAGFLWGVIKQGYRCKDCGMNCHKQCKDLVVLECKK, -0.053 ± 0.067; as for GFPHNFQETTYLKPTFCDNCAGFLWGVIKQGYRCKDCGMNCHKQCKDLVVRECKK, -0.008 ± 0.047.

As for GFPHNFQETTYLKPTFCDNCAGFLWGVIKQGYRCKDCGMNCHKQCKDLVVNECKK, the abundance fitness turned out to be 0.256 ± 0.11.

Take GFPHNFQETTYLKPTFCDNCAGFLWGVIKQGYRCKDCGMNCHKQCKDLVVKECKK: the abundance fitness is -0.155 ± 0.085. For GFPHNFQETTYLKPTFCDNCAGFLWGVIKQGYRCKDCGMNCHKQCKDLVVEECKK the value was -0.044 ± 0.098; for GFPHNFQETTYLKPTFCDNCAGFLWGVIKQGYRCKDCGMNCHKQCKDLTVFECKK, -0.055 ± 0.1; for GFPHNFQETTYLKPTFCDNCAGFLWGVIKQGYRCKDCGMNCHKQCKDLFVFECKK, 0.002 ± 0.065. As for GFPHNFQETTYLKPTFCDNCAGFLWGVIKQGYRCKDCGMNCHKQCKDLQVFECKK, the figure is -0.071 ± 0.15; as for GFPHNFQETTYLKPTFCDNCAGFLWGVIKQGYRCKDCGMNCHKQCKDLWVFECKK, 0.038 ± 0.14. As for GFPHNFQETTYLKPTFCDNCAGFLWGVIKQGYRCKDCGMNCHKQCKDLHVFECKK, the figure is 0.229 ± 0.1.

For GFPHNFQETTYLKPTFCDNCAGFLWGVIKQGYRCKDCGMNCHKQCKDLMVFECKK, the abundance fitness was -0.446 ± 0.2. As for GFPHNFQETTYLKPTFCDNCAGFLWGVIKQGYRCKDCGMNCHKQCKDLGVFECKK, the figure is -0.122 ± 0.084; as for GFPHNFQETTYLKPTFCDNCAGFLWGVIKQGYRCKDCGMNCHKQCKDLIVFECKK, -0.319 ± 0.16; as for GFPHNFQETTYLKPTFCDNCAGFLWGVIKQGYRCKDCGMNCHKQCKDLPVFECKK, -0.174 ± 0.12.

For the variant GFPHNFQETTYLKPTFCDNCAGFLWGVIKQGYRCKDCGMNCHKQCKDLAVFECKK, the abundance fitness is 0.041 ± 0.086. As for GFPHNFQETTYLKPTFCDNCAGFLWGVIKQGYRCKDCGMNCHKQCKDLCVFECKK, the abundance fitness is -0.229 ± 0.09.

For the variant GFPHNFQETTYLKPTFCDNCAGFLWGVIKQGYRCKDCGMNCHKQCKDLLVFECKK, the abundance fitness was -0.276 ± 0.095.

Consider GFPHNFQETTYLKPTFCDNCAGFLWGVIKQGYRCKDCGMNCHKQCKDLEVFECKK, for which the abundance fitness was -0.001 ± 0.12.

GFPHNFQETTYLKPTFCDNCAGFLWGVIKQGYRCKDCGMNCHKQCKDLRVFECKK: the abundance fitness was found to be 0.094 ± 0.1. For GFPHNFQETTYLKPTFCDNCAGFLWGVIKQGYRCKDCGMNCHKQCKDLNVFECKK the value was 0.035 ± 0.15.
